This note sets out measurements from publication PMC10127577 (Journal of Bacteriology, 2023).

The target in test [1] is T1, CDTb D4 fragment, CDTb residues 753 to 876 (Clostridioides difficile, UniProt O32739).
T1 construct: pET22b construct; source: E. coli BL21(DE3), purified (Ni-NTA, SEC); not shown: His6, C-terminal, kept
Kind of test: BLI. The conditions noted are these: both partners purified.

In test [2] the target is T2, CDTb protoxin (proCDTb), CDTb residues 43 to 876 (Clostridioides difficile, UniProt O32739).
T2 construct: pET24b construct for biophysical and structural studies; A different construct (pGEX-6p1, GST cleaved, C-terminal 6xHis) was used for immunisation and the neutralisation assay; also called proCTDb; source: E. coli BL21(DE3), purified (Ni-NTA, anion exchange, SEC); not shown: His6, C-terminal, kept
Kind of test: SPR; proCDTb with C-terminal 6xHis immobilised (~200 RU) on NTA chip, Biacore X100; Fab flowed at 0.1-25 nM; 10 mM HEPES pH 8.0, 150 mM NaCl, 6 mM CaCl2, 0.05% Tween 20; association 180 s, dissociation 600 s; 1:1 binding model. The conditions noted are these: both partners purified. For orientation: In SPR one partner is held on a chip, and binding of the other changes the refractive index at the surface.

Test [3] concerns the target T3, cleaved, mature CDTb (from limited trypsinization of proCDTb) (Clostridioides difficile).
T3 chain: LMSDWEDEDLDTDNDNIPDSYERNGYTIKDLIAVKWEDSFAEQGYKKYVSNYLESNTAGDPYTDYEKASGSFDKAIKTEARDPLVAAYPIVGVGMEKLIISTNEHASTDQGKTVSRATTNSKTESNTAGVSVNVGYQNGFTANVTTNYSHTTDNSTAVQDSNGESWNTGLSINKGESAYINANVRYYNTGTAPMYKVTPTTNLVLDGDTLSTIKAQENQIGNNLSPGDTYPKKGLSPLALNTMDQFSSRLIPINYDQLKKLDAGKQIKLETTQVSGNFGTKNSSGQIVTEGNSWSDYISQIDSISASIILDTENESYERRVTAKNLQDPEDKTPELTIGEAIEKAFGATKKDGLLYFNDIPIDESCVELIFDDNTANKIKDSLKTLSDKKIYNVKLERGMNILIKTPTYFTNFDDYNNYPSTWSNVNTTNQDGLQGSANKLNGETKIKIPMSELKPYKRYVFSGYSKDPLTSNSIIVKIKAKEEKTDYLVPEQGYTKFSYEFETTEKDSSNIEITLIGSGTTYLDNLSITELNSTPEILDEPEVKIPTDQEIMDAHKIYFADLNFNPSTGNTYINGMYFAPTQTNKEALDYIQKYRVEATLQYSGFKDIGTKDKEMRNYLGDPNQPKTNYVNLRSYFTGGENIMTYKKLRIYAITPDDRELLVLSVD
Kind of test: cell-based or functional assay.

Test [4] has as its target T1, CDTb D4 fragment, CDTb residues 753 to …. Briefly: crystal structure. To be noted: both partners purified.

B1: BINTOXB/22 Fab (Fab, V domains shown)
VH: QIQLVQSGPELKKPGETVKISCKASGYTFTNYGMNWVKQAPGKDLKWMGWMSTYTGEPTYADDFKGRFAFSLETSASTAYLQINNLKNEDMATYFCARRGNYLSFDYWGQGTTLTVSS
VL: DIVMTQSHKFMSTSVGDRVSITCKASQDVSTAVGWYQQKPGQSPKLLIYSASYRYTGVPDRFTGSGSGTDFTFTISSVQAEDLAVYYCQQHYSPPFTFGSGTELEIK
As for B1, the binding result in test [1] is “no binding (tested: 200 nM)”. The Kd – broadly, the concentration at which binding is half-saturated – in test [2] was determined as 16.3 nM. In test [3], the “EC50 of protection of HT29 cells from CDT (CDTa 25 ng/mL + cleaved, monomeric CDTb 75 ng/mL) cytotoxicity, Hoechst-stained surface, BINTOXB/22 IgG; blocks CDTb oligomerization (m7 with m7)” value is 21 µg/mL.

B2: BINTOXB/9 Fab (Fab, V domains shown)
VH: QVQLQQSGAELARPGASVKMSCKASGYTFTSYTMHWVKQRPGQGLEWIGYINPSNDYTSYNQKFKDKATLTADKSSSTAYMQLSSLTSEDSAVYYCARCWGYDPYYFDYWGQGTTLTVSS
VL: DIVMSQSPSLLAVSAGEKVTMSCKSSQSLLNSRTRKNYLAWYQQKPGQSPKVLIYWASTRESGVPDRFTGSGSGTDFTLTISSVQAEDLAVYYCKQSYNLLTFGAGTKLELK
B2 registered a Kd in test [2] of 0.73 nM. For the same molecule, in test [3], the “EC50 of protection of HT29 cells from CDT (CDTa 25 ng/mL + cleaved, monomeric CDTb 75 ng/mL) cytotoxicity, Hoechst-stained surface, BINTOXB/9 IgG; blocks CDTb oligomerization (m7 with m7)” value came to 13 µg/mL. Besides, the binding result in test [4] is reported as “binds”.
